According to paper PMC4482762:

Biological target: endogenous 14-3-3ε (UniProt P62258)
Experiment: GFP-Trap of YFP-R6, Western blot
Settings: reference: YFP-R6 wild type; sites S74

- binding against the reference: lost
Substance: PPP1R3D (R6) (from UniProt O95685) YFP-R6 S74A
